This data set can be described thus: yeast display, Sf9 membrane polyspecificity reagent, FACS + sequencing; frameworks hold sequencing errors. Put shortly:
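Sorting gates, low and high (top ~1%), were placed on anti-HA fluorescence to track expression and on streptavidin fluorescence to track reagent binding. A clone's polyreactivity label is taken from the gate it came out of. The reagent was 10% biotinylated, detergent-solubilized Sf9 membrane, applied for 1 hour at 4 °C to galactose-induced yeast display cells.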
For the sequence “QVQLVESGGGLVQAGGSLRLSCAASGYIFPPNAMGWYRQAPGKDRELVAAIRRSTGSTYYADSVKGRFTISRDNAKNTVYLQMNSLKPEDTAVYYCAAYYGYITFGYTYEYWGQGSQVTVSS”, the “polyreactivity (PSR sort gate)” value was “high polyreactivity”.

As to “QVQLVESGGGLVQAGGSLRLSCAASGFIFRTYSMGWYRQAPGKERELVAAISGTTGSTYYADSVKGRFTISRDNAKNTVYLQMNRLKPEDTAVYYCAADYYWYIRYDYWGQGTQVTVSS”, the “polyreactivity (PSR sort gate)” value was “low polyreactivity”.

As for “QVQLVESGGGIVQAGGSLRLSCAASGRIFPYYDMGWYRQAPGKERELVAAITSSGSTFYADSVKGRFTISRDNAKNTVYLQMNSLKPEDTAVYYCNTRDIRVRPYDYWGQGTQVTVSS”, the “polyreactivity (PSR sort gate)” value was “low polyreactivity”.

For the sequence “QVQLVESGRGLVQAGGSLRLSCAASGSTFVANDMGWYSQAPGKERELVAAISWSDATTYYADSVKGRGTISRDNAKNTVYLQMNSRKPEDNAVYDCAATRDTNNMDYWGHGTQVTVSS”, the “polyreactivity (PSR sort gate)” value is listed as “low polyreactivity”.

“QVQLVESGGGLVPARGSLRLSCAASGRIFRYYAMGWYRQAPGKERELVAAISGNGGRTSYADSVKGRFTISRDNAKITVSLQMTSLKPEDTAVYYCNAASVNGCRDFDYWGQGTQVTVSS”: the “polyreactivity (PSR sort gate)” value is reported as “high polyreactivity”.

On to “QVQLVESGGGLVQAGGSLRLSCAASGFIFRYNAMGWYRQAPGKESELVAAISSSGTTNYADSVKGRFTISRDNAKNTVYLQMNSLKPEDTAVYYCAARRSYARRFKNSMEYWGEGTQVTVSS”, for which the “polyreactivity (PSR sort gate)” value is given as “high polyreactivity”.

As for “QVQLVESGGGLVQAGGCLRLSCAPSGFIFGGYAMGWDRPAPGKEREVVAAISSSGGSTYYADSVKGRFTISRDNAKNTVYLQMNSLKPEDTAVYYCAARIQSVSSGRWFDYWGQGTQVTVSS”, the “polyreactivity (PSR sort gate)” value is “high polyreactivity”.

For “QVQLVESGGGLVQAGGSLRLTCAASGLIFARNAMGWYRQAPGKDRELVAAISSSGNTYADSVKGRFTISRDNAKNTVYLHMNSLKPEDTAVYYCNAVRRIRVTSTYDYWGQGTQVTVSS”, the “polyreactivity (PSR sort gate)” value is given as “high polyreactivity”.

Turning to “QVQLVESGGGLVQAGGSLRLSCAASGRIIPRNAMGWYRQEPGKERELVAGISRGGSTYYADSVKGRFTISRDNAKNSVYLQMNSLKPEDTAVYYCAAAYQKSPITPNMDYWGQGTQVTVSS”, the “polyreactivity (PSR sort gate)” value is “low polyreactivity”.

As for “QVQLVESGGGLVQAGGSLRLSCSASGRTFNKYAMGWYRQAPGKERELVAAISRSGGSTYYADSVKGRFTISRDNAKNTVYLQMNSLKPEDTAVYYCNAAYFGQHVGTGFDYWGQGTQVTVSS”, the “polyreactivity (PSR sort gate)” value was “high polyreactivity”.

“QVQLVESGGGLVQAGGSLRLSCAASGITYRGYAMGWYRQAPGKERELVAAISSGGSTSYADSLKGRFTISRDNAKNTVYLQMNSLKPEDTAVYYCAKDDERKQGQYPPYDSWGQGTQVTVSS”: the “polyreactivity (PSR sort gate)” value is “low polyreactivity”.

As to “QVQLVESGGGLVQAGGSLRLSCAASGLTFRHYAMGWYRQAPGKERELVAAITSSGGSTYYADSVKGRFTISRDNAKNTVYIQMNSLKPEDTAVYYCNARWSYFHAVSGVASDYWGQGTQVTVSS”, the “polyreactivity (PSR sort gate)” value is on record as “high polyreactivity”.

For “QVQLVESGGGLVQAGGSLRLSCAASGSTFRFYAMGSYRQAPGKERELVASISRSGGSTYYADSVKGRFTISRDNAKNTVYLQMNSLKPEDTAVYYCAARILYHMDWGQGTQVTVSS”, the “polyreactivity (PSR sort gate)” value is given as “high polyreactivity”.

Consider “QVQLVESGGGLFQAGGSLRLSCAASGLTFYVYAMGWYRQAPGKERELVAAITQNGGTTYYADSVKGRFTISRDNAKNTVYLQMNSLKPEDTAVYYCAAGNRSLGGRLYRYYYWGQGTLVTVSS”, for which the “polyreactivity (PSR sort gate)” value was “high polyreactivity”.

On to “QVQLVESGGGLVQAGGSLRLSCAASGSTFRYYAMGWYRQAPGKVRELVAAITSSGTSTYYADSVTGRFTISRDNAKNTVYLQKNSLKPEDTAVYYCAAPPVYKWVSSRYDYWGQGTQVTVSS”, for which the “polyreactivity (PSR sort gate)” value was “low polyreactivity”.

Regarding “QVQLVESGGGLVQAGGSLRLSCAASGSTFYGYAMGWYRQAPGKERELVAAITYSGGSTYYADSVKGRFTISRDNAKNTVYLQMNSLKPEDTAVYYCAATWLWFRRYRYDYWGQGTQVTVSS”, the “polyreactivity (PSR sort gate)” value is on record as “high polyreactivity”.
